Common to all, as to experiment: UV crosslinking
Data set [1] addresses T1, DCCcore (MSL1-MSL2-MSL3-MOF) (Drosophila melanogaster, UniProt P50535;P50534;P50536;O02193 1-1039;1-773;1-512;1-827).
Data set [2] has as its target T1, DCCcore (MSL1-MSL2-MSL3-MOF). This is another data set of the same source.
The target in data set [3] is T2, MSL1 (Drosophila melanogaster, UniProt P50535 1-1039).
T2 sequence: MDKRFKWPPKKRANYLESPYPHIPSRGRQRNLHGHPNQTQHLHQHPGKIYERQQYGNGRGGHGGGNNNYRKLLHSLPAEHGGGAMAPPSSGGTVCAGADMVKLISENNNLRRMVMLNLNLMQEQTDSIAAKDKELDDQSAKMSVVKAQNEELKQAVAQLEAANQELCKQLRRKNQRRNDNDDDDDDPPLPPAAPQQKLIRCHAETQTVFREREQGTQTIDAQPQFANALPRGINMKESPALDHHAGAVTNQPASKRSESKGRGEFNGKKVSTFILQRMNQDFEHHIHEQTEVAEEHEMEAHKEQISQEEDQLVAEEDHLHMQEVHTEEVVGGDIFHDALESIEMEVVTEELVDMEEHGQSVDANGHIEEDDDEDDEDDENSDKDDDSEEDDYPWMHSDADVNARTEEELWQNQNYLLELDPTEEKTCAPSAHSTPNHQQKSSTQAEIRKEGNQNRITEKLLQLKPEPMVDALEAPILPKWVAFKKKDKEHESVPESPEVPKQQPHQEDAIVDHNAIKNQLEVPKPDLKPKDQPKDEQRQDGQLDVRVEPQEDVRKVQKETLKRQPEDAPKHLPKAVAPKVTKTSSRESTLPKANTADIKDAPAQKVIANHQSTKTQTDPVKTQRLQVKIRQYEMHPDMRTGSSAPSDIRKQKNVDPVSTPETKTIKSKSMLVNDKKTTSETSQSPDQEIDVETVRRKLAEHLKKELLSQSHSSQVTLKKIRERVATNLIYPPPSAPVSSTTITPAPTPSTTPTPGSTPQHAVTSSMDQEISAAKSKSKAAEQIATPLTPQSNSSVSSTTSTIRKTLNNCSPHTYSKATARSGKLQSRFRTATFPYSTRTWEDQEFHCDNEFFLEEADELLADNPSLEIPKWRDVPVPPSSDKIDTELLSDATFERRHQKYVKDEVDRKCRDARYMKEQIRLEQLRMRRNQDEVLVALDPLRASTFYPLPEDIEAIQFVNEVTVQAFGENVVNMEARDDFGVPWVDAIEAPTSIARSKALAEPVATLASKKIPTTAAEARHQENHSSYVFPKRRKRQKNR

The target of data set [4] is T3, MSL2 (Drosophila melanogaster, UniProt P50534 1-773).
T3 sequence: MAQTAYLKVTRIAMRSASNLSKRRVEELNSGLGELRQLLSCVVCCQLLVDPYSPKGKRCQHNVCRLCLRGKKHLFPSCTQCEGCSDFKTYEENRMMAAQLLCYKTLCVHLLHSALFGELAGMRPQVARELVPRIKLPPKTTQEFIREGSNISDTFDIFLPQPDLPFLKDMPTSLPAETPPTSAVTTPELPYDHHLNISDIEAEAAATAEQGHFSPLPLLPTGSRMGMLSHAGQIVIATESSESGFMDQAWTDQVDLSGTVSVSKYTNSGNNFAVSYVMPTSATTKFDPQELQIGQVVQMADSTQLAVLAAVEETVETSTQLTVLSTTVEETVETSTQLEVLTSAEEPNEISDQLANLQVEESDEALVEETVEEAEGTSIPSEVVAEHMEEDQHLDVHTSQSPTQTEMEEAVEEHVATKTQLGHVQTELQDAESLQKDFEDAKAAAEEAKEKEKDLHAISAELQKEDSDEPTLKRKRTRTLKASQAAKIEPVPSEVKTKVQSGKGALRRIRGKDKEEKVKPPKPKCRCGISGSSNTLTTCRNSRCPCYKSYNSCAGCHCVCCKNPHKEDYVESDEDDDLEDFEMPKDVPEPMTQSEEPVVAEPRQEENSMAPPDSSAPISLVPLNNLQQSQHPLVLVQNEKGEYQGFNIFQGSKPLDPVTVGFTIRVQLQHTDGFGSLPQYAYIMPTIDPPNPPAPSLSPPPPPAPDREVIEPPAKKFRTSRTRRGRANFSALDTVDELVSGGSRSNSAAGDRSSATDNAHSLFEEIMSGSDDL

Like-named read-outs stand apart in the source and are kept apart here.

T1 sequence (P50536 whole entry, chain 3 of 2): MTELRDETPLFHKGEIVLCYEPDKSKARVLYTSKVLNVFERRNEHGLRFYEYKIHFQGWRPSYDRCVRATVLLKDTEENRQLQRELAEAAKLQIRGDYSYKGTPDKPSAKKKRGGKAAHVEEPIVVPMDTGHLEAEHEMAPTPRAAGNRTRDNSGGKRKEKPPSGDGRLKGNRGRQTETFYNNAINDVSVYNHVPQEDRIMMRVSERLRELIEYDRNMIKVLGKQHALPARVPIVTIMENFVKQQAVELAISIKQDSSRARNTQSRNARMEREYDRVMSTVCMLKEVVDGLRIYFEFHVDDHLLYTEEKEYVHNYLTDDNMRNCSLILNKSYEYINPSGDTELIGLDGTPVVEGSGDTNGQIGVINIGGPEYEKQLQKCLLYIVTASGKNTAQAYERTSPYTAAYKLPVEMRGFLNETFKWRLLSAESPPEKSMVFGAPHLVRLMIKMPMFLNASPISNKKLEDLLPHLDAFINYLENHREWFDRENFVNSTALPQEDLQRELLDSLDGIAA
T1 sequence (O02193 whole entry, chain 4 of 2): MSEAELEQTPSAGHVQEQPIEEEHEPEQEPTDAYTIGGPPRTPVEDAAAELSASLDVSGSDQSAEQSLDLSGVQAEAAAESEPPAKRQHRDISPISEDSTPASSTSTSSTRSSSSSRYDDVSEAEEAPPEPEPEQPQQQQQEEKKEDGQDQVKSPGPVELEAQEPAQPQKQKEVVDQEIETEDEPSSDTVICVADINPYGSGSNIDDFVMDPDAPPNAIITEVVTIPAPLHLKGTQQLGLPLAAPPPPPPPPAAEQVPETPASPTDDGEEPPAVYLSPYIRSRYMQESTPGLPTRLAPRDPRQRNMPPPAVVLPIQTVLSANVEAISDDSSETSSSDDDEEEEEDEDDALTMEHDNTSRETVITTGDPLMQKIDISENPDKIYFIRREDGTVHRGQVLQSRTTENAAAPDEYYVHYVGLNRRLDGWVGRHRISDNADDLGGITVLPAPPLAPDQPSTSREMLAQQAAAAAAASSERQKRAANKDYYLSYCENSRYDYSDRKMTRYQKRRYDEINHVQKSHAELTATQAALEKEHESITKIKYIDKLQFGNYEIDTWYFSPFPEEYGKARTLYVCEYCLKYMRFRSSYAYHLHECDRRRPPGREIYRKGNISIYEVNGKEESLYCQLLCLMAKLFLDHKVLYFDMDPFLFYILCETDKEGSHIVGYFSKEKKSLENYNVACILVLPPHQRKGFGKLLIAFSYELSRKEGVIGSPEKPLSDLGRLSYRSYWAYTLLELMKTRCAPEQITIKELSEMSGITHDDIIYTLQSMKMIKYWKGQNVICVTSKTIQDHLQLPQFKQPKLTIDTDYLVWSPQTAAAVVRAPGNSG

Regarding AUUAAGCAAAUAUAUAUGCAUAUAU (structured_RNA) [roX2 SL7-Loop], the binding result in data set [1] is “no binding”.

As to UGGGUAACGUUUUACGCGCCUU (structured_RNA) [roX2 SL7-3'], the binding result in data set [2], in data set [3] and in data set [4] was “binds” each time.
